In US20080300385A1:

How the values were obtained:
[1] = target: Tat protein from HIV-1 strain BH10 (HIV-1 strain BH10) (UniProt P69697); test: ITC in free solution (FIG. 7)
[2] = target: Tat protein from HIV-1 strain BH10 (HIV-1 strain BH10) (UniProt P69697); test: SPR, kinetic experiment (FIG. 5B)

Substance: gp140 Env protein from HIV-1 strain SF162 (o-gp140SF162), trimer (from UniProt P19550 32-675)
- stoichiometry (Tat molecules per Env trimer) (Tat molecules per Env trimer) [1]: 3
- Kd [2]: 37 nM
